The supplement of paper PMC10567573

B1: HESX1 (parent)
chain: ENKPSTCSFSIERILGLDQKKDCV

Variants of: B1
Experiment: protein stability index of a GFP-peptide fusion (GPS, HEK-293T) (PSI 1-6); higher = more stable
Details: c terminus: a fixed tail appended
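Note: lentivirally expressed fusions sorted by FACS into six bins by GFP to DsRed ratio, PSI derived from sequencing read proportions per bin multiplied by bin number.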

Variant | protein stability index
ENKPSTCSFSVERILGLDQKKDCV [I11V] | 2.91
ENKPSTCSFSWERILGLDQKKDCV [I11W] | 2.77
ENKPSTCSFSTERILGLDQKKDCV [I11T] | 3.52
ENKPSTCSFSYERILGLDQKKDCV [I11Y] | 3.13
ENKPSTCSFSSERILGLDQKKDCV [I11S] | 4.21
ENKPSTCSFSIEHILGLDQKKDCV [R13H] | 3.31
ENKPSTCSFSIEKILGLDQKKDCV [R13K] | 2.33
ENKPSTCSFSIEFILGLDQKKDCV [R13F] | 1.48
ENKPSTCSFSIEIILGLDQKKDCV [R13I] | 1.82
ENKPSTCSFSIEAILGLDQKKDCV [R13A] | 3.18
ENKPSTCSFSIEGILGLDQKKDCV [R13G] | 3.78
ENKPSTCSFSIELILGLDQKKDCV [R13L] | 2.27
ENKPSTCSFSIETILGLDQKKDCV [R13T] | 3.35
ENKPSTCSFSIEMILGLDQKKDCV [R13M] | 1.9
ENKPSTCSFSIECILGLDQKKDCV [R13C] | 2.6
ENKPSTCSFSIENILGLDQKKDCV [R13N] | 3.96
ENKPSTCSFSIEEILGLDQKKDCV [R13E] | 3.46
ENKPSTCSFSIEWILGLDQKKDCV [R13W] | 1.75
ENKPSTCSFSIEQILGLDQKKDCV [R13Q] | 2.68
ENKPSTCSFSIEPILGLDQKKDCV [R13P] | 4.41
ENKPSTCSFSIEDILGLDQKKDCV [R13D] | 3.9
ENKPSTCSFSIEVILGLDQKKDCV [R13V] | 2.12
ENKPSTCSFSIEYILGLDQKKDCV [R13Y] | 2.08
ENKPSTCSFSIESILGLDQKKDCV [R13S] | 3.24

Variant | protein stability index
ENKPSTCSFSIERILFLDQKKDCV [G16F] | 2.49
ENKPSTCSFSIERILCLDQKKDCV [G16C] | 2.83
ENKPSTCSFSIERILPLDQKKDCV [G16P] | 3.75
ENKPSTCSFSIERILALDQKKDCV [G16A] | 3.2
ENKPSTCSFSIERILRLDQKKDCV [G16R] | 2.23
ENKPSTCSFSIERILQLDQKKDCV [G16Q] | 3.76
ENKPSTCSFSIERILDLDQKKDCV [G16D] | 3.74
ENKPSTCSFSIERILMLDQKKDCV [G16M] | 2.92
ENKPSTCSFSIERILILDQKKDCV [G16I] | 2.63
ENKPSTCSFSIERILNLDQKKDCV [G16N] | 3.41
ENKPSTCSFSIERILKLDQKKDCV [G16K] | 2.9
ENKPSTCSFSIERILELDQKKDCV [G16E] | 3.27
ENKPSTCSFSIERILHLDQKKDCV [G16H] | 2.83
ENKPSTCSFSIERILLLDQKKDCV [G16L] | 2.43
ENKPSTCSFSIFRILGLDQKKDCV [E12F] | 1.63
ENKPSTCSFSIIRILGLDQKKDCV [E12I] | 1.61
ENKPSTCSFSIMRILGLDQKKDCV [E12M] | 1.86
ENKPSTCSFSIYRILGLDQKKDCV [E12Y] | 1.9
ENKPSTCSFSIRRILGLDQKKDCV [E12R] | 2.46
ENKPSTCSFSIQRILGLDQKKDCV [E12Q] | 2.57
ENKPSTCSFSIWRILGLDQKKDCV [E12W] | 1.48
ENKPSTCSFSILRILGLDQKKDCV [E12L] | 1.86
ENKPSTCSFSIKRILGLDQKKDCV [E12K] | 2.86
ENKPSTCSFSIDRILGLDQKKDCV [E12D] | 3.8

Variant | protein stability index
ENKPSTCSFSIPRILGLDQKKDCV [E12P] | 2.94
ENKPSTCSFSITRILGLDQKKDCV [E12T] | 2.94
ENKPSTCSFSIGRILGLDQKKDCV [E12G] | 3.65
ENKPSTCSFSIVRILGLDQKKDCV [E12V] | 1.64
ENKPSTCSFSIHRILGLDQKKDCV [E12H] | 2.47
ENKPSTCSFSICRILGLDQKKDCV [E12C] | 2.45
ENKPSTCSFSINRILGLDQKKDCV [E12N] | 3.44
ENKPSTCSFSISRILGLDQKKDCV [E12S] | 2.84
ENKPSTCSFSIERIHGLDQKKDCV [L15H] | 3.13
ENKPSTCSFSIERIMGLDQKKDCV [L15M] | 2.12
ENKPSTCSFSIERINGLDQKKDCV [L15N] | 3.73
ENKPSTCSFSIERISGLDQKKDCV [L15S] | 3.5
ENKPSTCSFSIERIVGLDQKKDCV [L15V] | 4.16
ENKPSTCSFSIERIKGLDQKKDCV [L15K] | 4.23
ENKPSTCSFSIERIGGLDQKKDCV [L15G] | 3.27
ENKPSTCSFSIERIEGLDQKKDCV [L15E] | 4.11
ENKPSTCSFSIERIYGLDQKKDCV [L15Y] | 2.38
ENKPSTCSFSIERICGLDQKKDCV [L15C] | 2.63
ENKPSTCSFSIERIPGLDQKKDCV [L15P] | 3.44
ENKPSTCSFSIERIWGLDQKKDCV [L15W] | 2.46
ENKPSTCSFSIERIRGLDQKKDCV [L15R] | 3.61
ENKPSTCSFSIERIFGLDQKKDCV [L15F] | 2.53
ENKPSTCSFSIERIIGLDQKKDCV [L15I] | 2.96
ENKPSTCSFSIERIAGLDQKKDCV [L15A] | 3.14

Variant | protein stability index
ENKPSTCSFSIERIQGLDQKKDCV [L15Q] | 2.69
ENKPSTCSFSIERITGLDQKKDCV [L15T] | 4
ENKPSTCSFSIERIDGLDQKKDCV [L15D] | 4.06
ENKPSTCSFSIERELGLDQKKDCV [I14E] | 4.88
ENKPSTCSFSIERQLGLDQKKDCV [I14Q] | 4.12
ENKPSTCSFSIERDLGLDQKKDCV [I14D] | 4.11
ENKPSTCSFSIERVLGLDQKKDCV [I14V] | 3.39
ENKPSTCSFSIERPLGLDQKKDCV [I14P] | 4.34
ENKPSTCSFSIERYLGLDQKKDCV [I14Y] | 3.75
ENKPSTCSFSIERRLGLDQKKDCV [I14R] | 3.97
ENKPSTCSFSIERMLGLDQKKDCV [I14M] | 3.15
ENKPSTCSFSIERALGLDQKKDCV [I14A] | 4.54
ENKPSTCSFSIERWLGLDQKKDCV [I14W] | 3.38
ENKPSTCSFSIERNLGLDQKKDCV [I14N] | 3.83
ENKPSTCSFSIERTLGLDQKKDCV [I14T] | 4.16
ENKPSTCSFSIERKLGLDQKKDCV [I14K] | 4.31
ENKPSTCSFSIERLLGLDQKKDCV [I14L] | 3.11
ENKPSTCSFSIERSLGLDQKKDCV [I14S] | 4.52
ENKPSTCSFSIERHLGLDQKKDCV [I14H] | 4.1
ENKPSTCSFSIERGLGLDQKKDCV [I14G] | 4.09
ENKPSTCSFSIERCLGLDQKKDCV [I14C] | 3.97
ENKPSTCSFSIERFLGLDQKKDCV [I14F] | 3.8
